Data from patent US20220251198A1.
pKd: −log10 of the molar value.

Columns and labels:
[1] = target: human FcγRIIIA_158V extracellular domain (human) (UniProt P08637); experiment: SPR (Biacore), FcγR ECD analyte; N=1
[2] = target: human FcγRIIIA_158F extracellular domain (human) (UniProt P08637); experiment: SPR (Biacore), FcγR ECD analyte; N=1
[3] = target: human FcγRI extracellular domain (human) (UniProt P12314); experiment: SPR (Biacore), FcγR ECD analyte; N=1
[4] = target: human FcγRIIA_131H extracellular domain (human) (UniProt P12318); experiment: SPR (Biacore), FcγR ECD analyte; N=1
[5] = target: human FcγRIIb extracellular domain (human) (UniProt P31994); experiment: SPR (Biacore), FcγR ECD analyte; N=1
[6] = target: human FcγRIIA_131R extracellular domain (human) (UniProt P12318); experiment: SPR (Biacore), FcγR ECD analyte; N=1
[7] = target: human FcγRIIIA_158F extracellular domain (human) (UniProt P08637); experiment: SPR at 25 C, antibody captured on Protein A, FcγR ECD analyte, steady state
[8] = target: human FcγRIIA_131R extracellular domain (human) (UniProt P12318); experiment: as above
[9] = target: human FcγRIIA_131H extracellular domain (human) (UniProt P12318); experiment: as above
[10] = target: human FcγRIIIA_158V extracellular domain (human) (UniProt P08637); experiment: as above

human FcγRI extracellular domain (human), sequence (P12314 16-292): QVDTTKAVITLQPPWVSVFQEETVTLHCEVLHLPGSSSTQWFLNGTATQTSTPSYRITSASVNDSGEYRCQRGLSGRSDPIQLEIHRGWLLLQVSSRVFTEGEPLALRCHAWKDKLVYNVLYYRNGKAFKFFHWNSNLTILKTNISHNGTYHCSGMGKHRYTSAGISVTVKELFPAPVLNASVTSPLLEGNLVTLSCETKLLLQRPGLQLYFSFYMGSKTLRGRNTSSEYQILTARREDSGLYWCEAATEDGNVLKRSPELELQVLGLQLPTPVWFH
human FcγRIIIA_158V extracellular domain (human), sequence (P08637 17-208 F176V): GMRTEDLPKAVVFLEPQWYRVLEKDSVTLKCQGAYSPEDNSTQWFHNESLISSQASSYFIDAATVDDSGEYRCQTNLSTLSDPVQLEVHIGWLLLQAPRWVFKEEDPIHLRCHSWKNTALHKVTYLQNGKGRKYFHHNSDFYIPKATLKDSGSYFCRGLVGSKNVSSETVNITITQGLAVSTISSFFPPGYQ
human FcγRIIA_131R extracellular domain (human), sequence (P12318 34-217 H167R): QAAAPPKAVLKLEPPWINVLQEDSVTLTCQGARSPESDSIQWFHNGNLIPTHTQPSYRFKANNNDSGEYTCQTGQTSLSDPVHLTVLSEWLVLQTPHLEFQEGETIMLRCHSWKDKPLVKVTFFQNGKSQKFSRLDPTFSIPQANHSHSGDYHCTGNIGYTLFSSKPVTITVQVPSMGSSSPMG
human FcγRIIIA_158F extracellular domain (human), sequence (P08637 17-208): as the sequence (P08637 17-208 F176V) above, with V160F counted along it
human FcγRIIA_131H extracellular domain (human), sequence (P12318 34-217): as the sequence (P12318 34-217 H167R) above, with R134H counted along it
human FcγRIIb extracellular domain (human), sequence (P31994 43-217): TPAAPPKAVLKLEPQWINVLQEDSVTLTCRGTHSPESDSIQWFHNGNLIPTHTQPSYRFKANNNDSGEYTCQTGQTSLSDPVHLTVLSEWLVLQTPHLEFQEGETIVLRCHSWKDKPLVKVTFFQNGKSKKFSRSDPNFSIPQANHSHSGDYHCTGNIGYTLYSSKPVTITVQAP

Row | Substance | pKd [1] | pKd [2] | pKd [3] | pKd [4] | pKd [5] | pKd [6] | pKd [7] | pKd [8] | pKd [9] | pKd [10]
1 | CD200R antibody IgG1 A330S + P331S + S267G | 5.61 | 5.01 | 9.29 | 5.29 | 5.37 | – | – | – | – | –
2 | CD200R antibody IgG1 A330S + S267G | 5.78 | 4.97 | 9.78 | 5.48 | 5.30 | 6.09 | – | – | – | –
3 | Human IgG4P control antibody | 5.26 | – | 9.41 | 5.29 | 5.48 | 5.54 | – | – | – | –
4 | IgG1 Control Antibody | – | – | – | – | – | – | 6.00 | 6.22 | 6.30 | –
5 | IgG4 PAA Control Antibody | – | – | – | – | – | – | – | – | – | 5.05

Continued, values first:

Row | pKd [1] | pKd [2] | pKd [3] | pKd [4] | pKd [5] | pKd [6] | pKd [7] | pKd [8] | pKd [9] | pKd [10] | Substance
6 | – | 5.59 | 10.52 | 6.01 | 5.47 | 6.09 | – | – | – | – | CD200R antibody IgG1 K322A
7 | 5.78 | 5.00 | 10.15 | 5.30 | 5.35 | 6.18 | – | – | – | – | CD200R antibody IgG1 K322A + S267G
8 | 5.13 | – | 10.16 | 5.58 | 6.56 | 7.22 | – | – | – | – | CD200R antibody IgG1 N325S + L328F
9 | 6.35 | 5.51 | 10.27 | 5.94 | 5.33 | 5.94 | – | – | – | – | CD200R antibody IgG1 P331S
10 | 5.68 | – | 9.85 | 5.28 | 5.36 | 6.11 | – | – | – | – | CD200R antibody IgG1 P331S + S267G
11 | 6.14 | 5.35 | 9.88 | 5.50 | 5.47 | 6.28 | – | – | – | – | CD200R antibody IgG1 S267G
12 | – | 5.59 | 10.26 | 6.15 | 5.38 | 5.99 | – | – | – | – | Hu IgG1 (antibody)
